Source: paper PMC6668441, “Comparative Study of Subcutaneous and Orthotopic Mouse Models of Prostate Cancer: Vascular Perfusion, Vasculature Density, Hypoxic Burden and BB2r-Targeting Efficacy” (Scientific Reports, 2019)

Tests used:
[1] = Biodistribution, BB2r-targeted uptake, subcutaneous PC-3 xenograft model; conditions: female, NOD SCID, mouse, iv, total radioactivity, 1 h 5 min p.i., mean ± SD; for dose excreted at 65 min: urine and faeces, excretion (urine and fecal material)
[2] = Radiochemical stability in stabilizing buffers (RP-HPLC); assay type: physicochemical; conditions: PBS, 0.37 MBq in 1 mL, 4 °C, 72 h
Protocol: Briefly, 0.37 MBq of radiolabeled compounds were incubated with 1 mL of: A) PBS; B) ascorbic acid in 0.9% sodium chloride solution (40 mg/ml); and C) Selenomethionine (0.2 mg/ml) and ascorbic acid (40 mg/ml) in 0.9% sodium chloride solution at 4 °C for 24, 48 and 72 h. The stability of the radioconjugate at each time point was calculated based on the integration of the RP-HPLC chromatograms.
(§1) Peptide synthesis was performed using an automated solid-phase peptide synthesizer employing traditional Fmoc chemistry and using a Rink Amide resin. Briefly, the resin (100 µmol of the resin substituted peptide anchors) was deprotected using piperidine, resulting in the formation of a primary amine from which the C-terminus of the growing peptide was anchored.
The Fmoc protected amino acids (300 µmol) with appropriate orthogonal protection were activated with HBTU and sequentially added to the resin. […] All conjugate were peak purified to • 95% purity and quantified by RP-HPLC prior to in vitro/in vivo investigations. […]
(§2) The partition coefficient was determined for the 177Lu-labeled conjugate. […] Aliquots of 100 µL were taken from each layer and the radioactivity of each was quantified by a Ȗ-counter. […]

physchem = assay type: physicochemical; conditions: pH 7.4
Protocol: as §1
The Fmoc protected amino acids (300 µmol) with appropriate orthogonal protection were activated with HBTU and sequentially added to the resin. The resulting peptide was orthogonally deprotected and cleaved from the resin using a cocktail consisting of triisopropyl silane (0.1 mL), water (0.1 mL), 3,6-dioxa-1,8-octanedithiol (0.1 mL), trifluoroacetic acid (4.625 mL) and thioanisole (0.075 mL), respectively. The cleaved peptide was subsequently precipitated and washed using cold (0 °C) methyl-tert-butyl ether (10 mL×3). The crude conjugate was dried by a centrivap concentrator and weighed. ES-MS was used to determine the molecular mass of the prepared peptides. All conjugate were peak purified to • 95% purity and quantified by RP-HPLC prior to in vitro/in vivo investigations.
HPLC Purification and Analysis Methodology […]
as §2

CSCC[C@H](NC(=O)[C@H](CC(C)C)NC(=O)[C@H](Cc1c[nH]cn1)NC(=O)CNC(=O)[C@@H](NC(=O)[C@H](C)NC(=O)[C@H](Cc1c[nH]c2ccccc12)NC(=O)[C@H](CCC(N)=O)NC(=O)CCOCCOCCOCCOCCNC(=O)[C@@H](CO)NC(=O)[C@@H](CO)NC(=O)[C@@H](CO)NC(=O)[C@@H](CO)NC(=O)[C@@H](CO)NC(=O)CN1CCN(CC(=O)O)CCN(CC(=O)O)CCN(CC(=O)O)CC1)C(C)C)C(N)=O [[^177Lu]Lu-DOTA-SP714, metal not drawn]
tissue uptake at 65 min ([1]; blood, 10 uCi, blood uptake, tumor volume 300-700 mm^3, 10 µCi i.v.): 0.78 ± 0.81 %ID/g
tissue uptake at 65 min ([1]; blood, 10 uCi, blood uptake, tumor volume <300 mm^3, 10 µCi i.v.): 0.49 ± 0.4 %ID/g
tissue uptake at 65 min ([1]; blood, 10 uCi, blood uptake, tumor volume >700 mm^3, 10 µCi i.v.): 2.27 ± 0.6 %ID/g
tissue uptake at 65 min ([1]; bone, 10 uCi, bone uptake, tumor volume 300-700 mm^3, 10 µCi i.v.): 0.26 ± 0.19 %ID/g
tissue uptake at 65 min ([1]; bone, 10 uCi, bone uptake, tumor volume <300 mm^3, 10 µCi i.v.): 0.2 ± 0.12 %ID/g
tissue uptake at 65 min ([1]; bone, 10 uCi, bone uptake, tumor volume >700 mm^3, 10 µCi i.v.): 0.67 ± 0.07 %ID/g
tissue uptake at 65 min ([1]; brain, 10 uCi, brain uptake, tumor volume 300-700 mm^3, 10 µCi i.v.): 0.03 ± 0.01 %ID/g
tissue uptake at 65 min ([1]; brain, 10 uCi, brain uptake, tumor volume <300 mm^3, 10 µCi i.v.): 0.03 ± 0.02 %ID/g
tissue uptake at 65 min ([1]; brain, 10 uCi, brain uptake, tumor volume >700 mm^3, 10 µCi i.v.): 0.09 ± 0.05 %ID/g
tissue uptake at 65 min ([1]; heart, 10 uCi (370 kBq), heart uptake, tumor volume 300-700 mm^3, 10 µCi i.v.): 0.16 ± 0.03 %ID/g
tissue uptake at 65 min ([1]; heart, 10 uCi (370 kBq), heart uptake, tumor volume >700 mm^3, 10 µCi i.v.): 0.68 ± 0.48 %ID/g
tissue uptake at 65 min ([1]; heart, 10 uCi, heart uptake, tumor volume <300 mm^3, 10 µCi i.v.): 0.16 ± 0.05 %ID/g
tissue uptake at 65 min ([1]; kidney, 10 uCi, kidney uptake, tumor volume 300-700 mm^3, 10 µCi i.v.): 2.59 ± 1.02 %ID/g
tissue uptake at 65 min ([1]; kidney, 10 uCi, kidney uptake, tumor volume <300 mm^3, 10 µCi i.v.): 2.75 ± 1.29 %ID/g
tissue uptake at 65 min ([1]; kidney, 10 uCi, kidney uptake, tumor volume >700 mm^3, 10 µCi i.v.): 6.64 ± 2.83 %ID/g
tissue uptake at 65 min ([1]; large intestine, 10 uCi, large intestine uptake, tumor volume 300-700 mm^3, 10 µCi i.v.): 2.63 ± 2.12 %ID/g
tissue uptake at 65 min ([1]; large intestine, 10 uCi, large intestine uptake, tumor volume <300 mm^3, 10 µCi i.v.): 1.38 ± 0.75 %ID/g
tissue uptake at 65 min ([1]; large intestine, 10 uCi, large intestine uptake, tumor volume >700 mm^3, 10 µCi i.v.): 3.75 ± 2.89 %ID/g
tissue uptake at 65 min ([1]; liver, 10 uCi, liver uptake, tumor volume 300-700 mm^3, 10 µCi i.v.): 0.31 ± 0.06 %ID/g
tissue uptake at 65 min ([1]; liver, 10 uCi, liver uptake, tumor volume <300 mm^3, 10 µCi i.v.): 0.29 ± 0.12 %ID/g
tissue uptake at 65 min ([1]; liver, 10 uCi, liver uptake, tumor volume >700 mm^3, 10 µCi i.v.): 0.9 ± 0.49 %ID/g
tissue uptake at 65 min ([1]; lung, 10 uCi (370 kBq), lung uptake, tumor volume 300-700 mm^3, 10 µCi i.v.): 0.64 ± 0.39 %ID/g
tissue uptake at 65 min ([1]; lung, 10 uCi (370 kBq), lung uptake, tumor volume <300 mm^3, 10 µCi i.v.): 1.08 ± 1.55 %ID/g
tissue uptake at 65 min ([1]; lung, 10 uCi, lung uptake, tumor volume >700 mm^3, 10 µCi i.v.): 1.39 ± 0.67 %ID/g
tissue uptake at 65 min ([1]; muscle, 10 uCi, muscle uptake, tumor volume 300-700 mm^3, 10 µCi i.v.): 0.15 ± 0.07 %ID/g
tissue uptake at 65 min ([1]; muscle, 10 uCi, muscle uptake, tumor volume <300 mm^3, 10 µCi i.v.): 0.17 ± 0.12 %ID/g
tissue uptake at 65 min ([1]; muscle, 10 uCi, muscle uptake, tumor volume >700 mm^3, 10 µCi i.v.): 0.46 ± 0.24 %ID/g
tissue uptake at 65 min ([1]; pancreas, 10 uCi, pancreas uptake, tumor volume 300-700 mm^3, 10 µCi i.v.): 23.8 ± 8.43 %ID/g
tissue uptake at 65 min ([1]; pancreas, 10 uCi, pancreas uptake, tumor volume <300 mm^3, 10 µCi i.v.): 19.4 ± 13 %ID/g
tissue uptake at 65 min ([1]; pancreas, 10 uCi, pancreas uptake, tumor volume >700 mm^3, 10 µCi i.v.): 22.6 ± 7.83 %ID/g
tissue uptake at 65 min ([1]; small intestine, 10 uCi, small intestine uptake, tumor volume 300-700 mm^3, 10 µCi i.v.): 2.82 ± 1.14 %ID/g
tissue uptake at 65 min ([1]; small intestine, 10 uCi, small intestine uptake, tumor volume <300 mm^3, 10 µCi i.v.): 2.53 ± 1.39 %ID/g
tissue uptake at 65 min ([1]; small intestine, 10 uCi, small intestine uptake, tumor volume >700 mm^3, 10 µCi i.v.): 4.21 ± 1.92 %ID/g
tissue uptake at 65 min ([1]; spleen, 10 uCi, spleen uptake, tumor volume 300-700 mm^3, 10 µCi i.v.): 2.53 ± 1.31 %ID/g
tissue uptake at 65 min ([1]; spleen, 10 uCi, spleen uptake, tumor volume <300 mm^3, 10 µCi i.v.): 1.46 ± 1.32 %ID/g
tissue uptake at 65 min ([1]; spleen, 10 uCi, spleen uptake, tumor volume >700 mm^3, 10 µCi i.v.): 3.02 ± 0.63 %ID/g
tissue uptake at 65 min ([1]; stomach, 10 uCi, stomach uptake, tumor volume 300-700 mm^3, 10 µCi i.v.): 1.68 ± 0.85 %ID/g
tissue uptake at 65 min ([1]; stomach, 10 uCi, stomach uptake, tumor volume <300 mm^3, 10 µCi i.v.): 0.94 ± 0.53 %ID/g
tissue uptake at 65 min ([1]; stomach, 10 uCi, stomach uptake, tumor volume >700 mm^3, 10 µCi i.v.): 4.89 ± 3.52 %ID/g
tissue uptake at 65 min ([1]; tumor, 10 uCi, tumor uptake, tumor volume 300-700 mm^3, 10 µCi i.v.): 5.35 ± 1.75 %ID/g
tissue uptake at 65 min ([1]; tumor, 10 uCi, tumor uptake, tumor volume <300 mm^3, 10 µCi i.v.): 4.16 ± 1.74 %ID/g
tissue uptake at 65 min ([1]; tumor, 10 uCi, tumor uptake, tumor volume >700 mm^3, 10 µCi i.v.): 9.44 ± 3.66 %ID/g
dose excreted at 65 min ([1]; 10 uCi, tumor volume 300-700 mm^3, 10 µCi i.v.): 73.2 ± 7%
dose excreted at 65 min ([1]; 10 uCi, tumor volume <300 mm^3, 10 µCi i.v.): 68.5 ± 23.4%
dose excreted at 65 min ([1]; 10 uCi, tumor volume >700 mm^3, 10 µCi i.v.): 59 ± 12.4%
radiolytic degradation [2]: 39.9%
logD (physchem): -2.2 ± 0.1
